From paper PMC12314560

Molecular target: Angiotensin-converting enzyme 2 (recombinant human ACE2 protein-mFc Tag) (human) (UniProt Q9BYF1)
Assay: BLI

UniProt Q9BYF1, sequence (Q9BYF1 18-740): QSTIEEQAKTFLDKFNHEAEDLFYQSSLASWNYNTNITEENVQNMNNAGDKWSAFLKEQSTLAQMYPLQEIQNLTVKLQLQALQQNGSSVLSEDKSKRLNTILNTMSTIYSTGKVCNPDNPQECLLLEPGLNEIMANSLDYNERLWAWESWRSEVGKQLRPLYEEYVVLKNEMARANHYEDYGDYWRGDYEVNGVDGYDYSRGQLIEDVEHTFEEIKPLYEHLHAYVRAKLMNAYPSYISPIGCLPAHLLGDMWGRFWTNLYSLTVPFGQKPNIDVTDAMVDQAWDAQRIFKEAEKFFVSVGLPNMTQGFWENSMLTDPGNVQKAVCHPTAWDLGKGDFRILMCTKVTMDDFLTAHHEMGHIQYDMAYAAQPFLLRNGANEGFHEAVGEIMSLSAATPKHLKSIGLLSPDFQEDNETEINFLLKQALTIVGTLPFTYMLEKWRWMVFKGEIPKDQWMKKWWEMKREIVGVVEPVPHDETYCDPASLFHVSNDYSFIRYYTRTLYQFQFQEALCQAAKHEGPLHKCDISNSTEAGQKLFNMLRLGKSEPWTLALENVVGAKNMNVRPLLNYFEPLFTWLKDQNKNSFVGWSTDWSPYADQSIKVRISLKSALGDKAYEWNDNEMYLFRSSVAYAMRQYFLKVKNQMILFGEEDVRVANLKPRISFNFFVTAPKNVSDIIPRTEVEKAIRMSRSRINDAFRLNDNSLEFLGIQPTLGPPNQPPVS

Question: For Beta S1 protein (domain or fragment), which Kd is on record?
Answer: 0.472 nM
